The values below come from PMC10387098.

As usually defined, the Kd is the equilibrium constant for the complex coming apart.

Read-outs that look alike come from different tables or passages of the source.

Experiment [1] deals with KRAS4b residues 1–169 with N-terminal cysteine, Alexa Fluor 647-labeled, GMP-PNP-bound (UniProt P01116). The experiment is described as follows: MST; 10 μL of 5 nM Alexa Fluor 647-labeled GMP-PNP-bound KRAS mixed with 10 μL of serially diluted BRAF proteins (10 pM to 1 μM); 0.05% Tween-20; Monolith NT.115pico; three independent dilution series averaged.
Experiment [2] addresses CRAF RBD-CRD-C2 (Homo sapiens) (UniProt P04049). The conditions noted are these: cited from earlier work.
The target in experiment [3] is CRAF RBD (Homo sapiens) (UniProt P04049). The following applies: cited from earlier work.
Experiment [4] concerns the target CRAF RBD-CRD (Homo sapiens) (UniProt P04049). As to the kind of experiment: SPR. The following applies: cited from earlier work.
Experiment [5] shares this target. The conditions noted are these: cited from earlier work.

As for “BRAF/14-3-3 (full length, active dimer) (from UniProt P15056 1-766) (complex)”, the Kd in experiment [1] turned out to be 106 nM.

In experiment [1], “BRAF/MEK/14-3-3 (autoinhibited), as used for MST (from UniProt P15056 1-766; Q02750 1-393) (complex)” came in with a Kd of 127 nM.

As for KRAS (from UniProt P01116), the Kd in experiment [2] was 188 nM; in experiment [3], 21.2 nM; in experiment [4], 188 nM; in experiment [5], 190 nM.
